# Laboratory results as given in article PMC9168619 (The Journal of Biological Chemistry, 2022).
# B1: Rae1 (natural protein, human (endogenous in HeLa), UniProt P78406 1-368, looked up)
# chain: MSLFGTTSGFGTSGTSMFGSATTDNHNPMKDIEVTSSPDDSIGCLSFSPPTLPGNFLIAGSWANDVRCWEVQDSGQTIPKAQQMHTGPVLDVCWSDDGSKVFTASCDKTAKMWDLSSNQAIQIAQHDAPVKTIHWIKAPNYSCVMTGSWDKTLKFWDTRSSNPMMVLQLPERCYCADVIYPMAVVATAERGLIVYQLENQPSEFRRIESPLKHQHRCVAIFKDKQNKPTGFALGSIEGRVAIHYINPPNPAKDNFTFKCHRSNGTNTSAPQDIYAVNGIAFHPVHGTLATVGSDGRFSFWDKDARTKLKTSEQLDQPISACCFNHNGNIFAYASSYDWSKGHEFYNPQKKNYIFLRNAAEELKPRNKK
# notes: Rae1, shuttling mRNA export factor
# Biological target: T1, Nup98 (human (endogenous in HeLa), UniProt P52948 1-880)
# T1 construct: Nup98, the N-terminal product of the autoproteolytic cleavage of the Nup98-Nup96 precursor
# T1 sequence (looked up): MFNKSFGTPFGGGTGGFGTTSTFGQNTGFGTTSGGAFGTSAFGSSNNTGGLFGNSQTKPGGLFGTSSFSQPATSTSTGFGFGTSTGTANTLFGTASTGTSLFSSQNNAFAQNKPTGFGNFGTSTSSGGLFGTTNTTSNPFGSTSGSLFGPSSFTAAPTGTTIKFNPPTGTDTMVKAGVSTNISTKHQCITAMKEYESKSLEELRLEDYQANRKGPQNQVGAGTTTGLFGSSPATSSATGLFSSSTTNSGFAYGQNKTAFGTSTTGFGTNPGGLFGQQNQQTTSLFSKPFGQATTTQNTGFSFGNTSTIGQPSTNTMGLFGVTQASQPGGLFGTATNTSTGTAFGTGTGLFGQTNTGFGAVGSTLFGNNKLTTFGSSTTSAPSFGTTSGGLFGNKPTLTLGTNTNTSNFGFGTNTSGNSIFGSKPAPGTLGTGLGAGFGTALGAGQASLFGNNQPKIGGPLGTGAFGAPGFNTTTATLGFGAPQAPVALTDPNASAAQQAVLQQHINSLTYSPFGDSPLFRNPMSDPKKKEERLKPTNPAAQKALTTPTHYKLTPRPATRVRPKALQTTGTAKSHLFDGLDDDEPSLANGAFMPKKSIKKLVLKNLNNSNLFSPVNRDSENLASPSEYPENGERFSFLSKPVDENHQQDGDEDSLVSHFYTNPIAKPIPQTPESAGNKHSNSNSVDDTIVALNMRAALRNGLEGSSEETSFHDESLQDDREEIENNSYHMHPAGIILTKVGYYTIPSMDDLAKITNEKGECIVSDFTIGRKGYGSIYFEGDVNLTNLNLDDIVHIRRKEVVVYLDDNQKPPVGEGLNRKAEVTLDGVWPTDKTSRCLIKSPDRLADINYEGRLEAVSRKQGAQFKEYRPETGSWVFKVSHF
# Assay: […] 300 mM NaCl, 20 mM Hepes pH 7.4, 0.5% Triton X-100; +4 °C; […]
# Details: partners not purified
binder,measurement,value
B1,stoichiometry N,~1 Nup98:Rae1
